Results from patent US20230303994.
Numbering of substitutions follows the chain as printed.

B1: trypsin variant SEQ ID NO: 52 (protein)
chain: IVGGYTCAANSIPYQVSLNSGSHRCGGSLINSQWVVSAAHCYKLRIQVRLGEHNIDVLEGNEQFINAAKIITHPNFNGNTLDNDIMLIKLSSPATLNSRVATVSLPRSCAAAGTECLISGWGNTKSSGSSYPSLLQCLKAPVLSDSSCKSSYPGQITGNMICVGFLEGGKDACQGDSGGPVVCNGQLQGIVSSGYGCAQKNKPGVYTKVCNYVNWIQQTIAAN
B2: trypsin variant SEQ ID NO: 17 (protein)
chain: B1 chain with L44S, K125Y
B3: trypsin variant SEQ ID NO: 21 (protein)
chain: B1 chain with L44S, K125H
B4: trypsin variant SEQ ID NO: 70 (protein)
chain: B1 chain with L44S, S193Y
B5: trypsin variant SEQ ID NO: 66 (protein)
chain: B1 chain with L44S, Y131S
B6: trypsin variant SEQ ID NO: 68 (protein)
chain: B1 chain with L44S, Y131D
B7: trypsin variant SEQ ID NO: 65 (protein)
chain: B1 chain with L44S, Y131G
B8: trypsin variant SEQ ID NO: 54 (protein)
chain: B1 chain with L44S, D56A
B9: trypsin variant SEQ ID NO: 30 (protein)
chain: B1 chain with R24S, L44S
B10: trypsin variant SEQ ID NO: 75 (protein)
chain: B1 chain with L44S, G78Y
B11: trypsin variant SEQ ID NO: 29 (protein)
chain: B1 chain with R24L, L44S
B12: trypsin variant SEQ ID NO: 28 (protein)
chain: B1 chain with R24V, L44S
B13: trypsin variant SEQ ID NO: 124 (protein)
chain: B1 chain with L44S, Y131K
B14: trypsin variant SEQ ID NO: 120 (protein)
chain: B1 chain with L44S, K125P
B15: trypsin variant SEQ ID NO: 129 (protein)
chain: B1 chain with L44S, S193N
B16: trypsin variant SEQ ID NO: 13 (protein)
chain: B1 chain with L44S, R99E
B17: trypsin variant SEQ ID NO: 62 (protein)
chain: B1 chain with L44S, Y131V
B18: trypsin variant SEQ ID NO: 126 (protein)
chain: B1 chain with R24E, L44S
B19: trypsin variant SEQ ID NO: 72 (protein)
chain: B1 chain with L44S, G78S
B20: trypsin variant SEQ ID NO: 60 (protein)
chain: B1 chain with L44S, R107S
B21: trypsin variant SEQ ID NO: 12 (protein)
chain: B1 chain with L44S, R99D
B22: trypsin variant SEQ ID NO: 61 (protein)
chain: B1 chain with L44S, R107D
B23: trypsin variant SEQ ID NO: 8 (protein)
chain: B1 chain with L44S, R99G
B24: trypsin variant SEQ ID NO: 20 (protein)
chain: B1 chain with L44S, K125E
B25: trypsin variant SEQ ID NO: 64 (protein)
chain: B1 chain with L44S, Y131W
B26: trypsin variant SEQ ID NO: 76 (protein)
chain: B1 chain with L44S, G78E
B27: trypsin variant SEQ ID NO: 27 (protein)
chain: B1 chain with L44S, K170N
B28: trypsin variant SEQ ID NO: 71 (protein)
chain: B1 chain with L44S, S193T
B29: trypsin variant SEQ ID NO: 22 (protein)
chain: B1 chain with L44S, K125L
B30: trypsin variant SEQ ID NO: 15 (protein)
chain: B1 chain with L44S, K125A
B31: trypsin variant SEQ ID NO: 26 (protein)
chain: B1 chain with L44S, K170G
B32: trypsin variant SEQ ID NO: 127 (protein)
chain: B1 chain with L44Y
B33: trypsin variant SEQ ID NO: 55 (protein)
chain: B1 chain with L44S, D56W
B34: trypsin variant SEQ ID NO: 123 (protein)
chain: B1 chain with R24G, L44S
B35: trypsin variant SEQ ID NO: 16 (protein)
chain: B1 chain with L44S, K125G
B36: trypsin variant SEQ ID NO: 125 (protein)
chain: B1 chain with R24D, L44S
B37: trypsin variant SEQ ID NO: 67 (protein)
chain: B1 chain with L44S, Y131Q
B38: trypsin variant SEQ ID NO: 58 (protein)
chain: B1 chain with L44S, R107P
B39: trypsin variant SEQ ID NO: 59 (protein)
chain: B1 chain with L44S, R107G
B40: trypsin variant SEQ ID NO: 128 (protein)
chain: B1 chain with L44S, Y131P
B41: trypsin variant SEQ ID NO: 130 (protein)
chain: B1 chain with L44S, S193C
B42: trypsin variant SEQ ID NO: 69 (protein)
chain: B1 chain with L44S, S193F
B43: trypsin variant SEQ ID NO: 23 (protein)
chain: B1 chain with L44S, K125Q
B44: trypsin variant SEQ ID NO: 112 (protein)
chain: B1 chain with L44P, D56H, G78P, R99H, R107T, K125S, K170A, A172S
B45: trypsin variant SEQ ID NO: 114 (protein)
chain: B1 chain with L44P, D56H, R99A, R107T, K125A, K170A, A172S
B46: trypsin variant SEQ ID NO: 63 (protein)
chain: B1 chain with L44S, Y131I
B47: trypsin variant SEQ ID NO: 7 (protein)
chain: B1 chain with L44S, R99W
B48: trypsin variant SEQ ID NO: 121 (protein)
chain: B1 chain with L44S, K170I
B49: trypsin variant SEQ ID NO: 31 (protein)
chain: B1 chain with R24Q, L44S
B50: trypsin variant SEQ ID NO: 122 (protein)
chain: B1 chain with L44S, K170F

Molecular target: pre-pro-human insulin

Row | Protein | Activity PPI cleavage | Selectivity
1 | B1 | yes | >90%
2 | B2 | yes | >80%
3 | B3 | yes | >90%
4 | B4 | yes | >70%
5 | B5 | yes | >90%
6 | B6 | yes | >70%
7 | B7 | yes | >80%
8 | B8 | yes | >90%
9 | B9 | yes | >70%
10 | B10 | yes | >90%
11 | B11 | yes | >90%
12 | B12 | yes | >90%
13 | B13 | yes | 27.6%
14 | B14 | yes | 1.4%
15 | B15 | yes | 44.8%
16 | B16 | yes | >90%
17 | B17 | yes | >90%
18 | B18 | yes | 7.2%
19 | B19 | yes | >90%
20 | B20 | yes | >90%
21 | B21 | yes | >90%
22 | B22 | yes | >80%
23 | B23 | yes | >90%
24 | B24 | yes | >90%
25 | B25 | yes | >90%

Row | Protein | Activity PPI cleavage | Selectivity
26 | B26 | yes | >90%
27 | B27 | yes | >80%
28 | B28 | yes | >62.1%
29 | B29 | yes | >90%
30 | B30 | yes | >90%
31 | B31 | yes | >80%
32 | B32 | yes | 20.5%
33 | B33 | yes | >90%
34 | B34 | yes | 60.7%
35 | B35 | yes | >90%
36 | B36 | yes | 12.2%
37 | B37 | yes | >90%
38 | B38 | yes | >90%
39 | B39 | yes | >90%
40 | B40 | yes | 57.1%
41 | B41 | yes | 33.8%
42 | B42 | yes | >70%
43 | B43 | yes | >90%
44 | B44 | yes | >90%
45 | B45 | yes | >90%
46 | B46 | yes | >90%
47 | B47 | yes | >90%
48 | B48 | yes | 4.6%
49 | B49 | yes | >62.1%
50 | B50 | yes | 59.4%
